± gives the uncertainty stated by the source.
Test: self-splicing fitness, log relative to wild type (ln ratio); higher = more splicing; Tetrahymena group I intron in knt gene, E. coli kanamycin selection, DiMSum; sequences stand for … in CUCUCU…GGAGGGAAAAGUUAUCAGGCAUGCACCUGGUAGCUAGUCUUUAAACCAAUAGAUUGCAUCGGUUUAAAAGGCAAGACCGUCAAAUUGCGGGAAAGGGGUCAACAGCCGUUCAGUACCAAGUCUCAGGGGAAACUUUGAGAUGGCCUUGCAAAGGGUAUGGUAAUAAGCUGACGGACAUGGUCCUAACCACGCAGCCAAGUCCUAAGUCAACAGAUCUUCUGUUGAUAUGGAUGCAGUUCACAGACUAAAUGUCGGUCGGGGAAGAUGUAUUCUUCUCAUAAGAUAUAGUCGGACCUCUCCUUAAUGGGAGCUAGCGGAUGAAGUGAUGCAACACUGGAGCCGCUGGGAACUAAUUUGUAUGCGAAAGUAUAUUGAUUAGUUUUGGAGUACUCGUGGUCG
Method in brief: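 Colonies from six replicate transformations of E. coli BL21(DE3) were pooled and amplicon-sequenced on an Illumina HiSeq 2500. The library placed an intron with all eight P1ex-region nucleotides randomised inside the knt kanamycin-resistance gene on pET-22b(+), and cells grew overnight at 37°C or 30°C on LB agar with or without 25 μg/mL kanamycin (plus 100 μg/mL carbenicillin, 50 μM IPTG, 0.2% rhamnose). Fitness is the DiMSum error-weighted combination of wild-type-normalised replicate fold changes, kanamycin versus none.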

| Sequence | self-splicing fitness (ln) (30 °C) | self-splicing fitness (ln) (37 °C) |
| --- | --- | --- |
| UCUUAGCAAUAUUACGGUCU | -4.42 ± 0.42 | -2.67 ± 0.32 |
| UCUUAGCAAUAUUACGUCGA | -0.705 ± 0.13 | -0.434 ± 0.15 |
| UCUUAGCAAUAUUACGUCGG | -0.815 ± 0.21 | -0.0675 ± 0.2 |
| UCUUAGCAAUAUUACGUCUC | -3.09 ± 0.3 | -2.39 ± 0.39 |
| UCUUAGCAAUAUUACGUGGA | -3.14 ± 0.32 | -3.03 ± 0.37 |
| UCUUAGCAAUAUUACGUGGC | – | -1.6 ± 0.42 |
| UCUUAGCAAUAUUACGUUAA | -2.98 ± 0.26 | -2.67 ± 0.38 |
| UCUUAGCAAUAUUACGUUAC | – | -2.83 ± 0.31 |
| UGAAAGCAAUAUUACGAAAG | -2.61 ± 0.15 | -0.866 ± 0.16 |
| UGAAAGCAAUAUUACGACCC | -1.44 ± 0.31 | – |
| UGAAAGCAAUAUUACGACUC | -2.17 ± 0.2 | -1.88 ± 0.25 |
| UGAAAGCAAUAUUACGAGGA | -3.43 ± 0.24 | -1.81 ± 0.15 |
| UGAAAGCAAUAUUACGAGUC | -3.42 ± 0.28 | -2.28 ± 0.26 |
| UGAAAGCAAUAUUACGAUCA | -0.309 ± 0.084 | -0.381 ± 0.1 |
| UGAAAGCAAUAUUACGCAAC | -3.98 ± 0.29 | -1.69 ± 0.19 |
| UGAAAGCAAUAUUACGCCAU | -3.11 ± 0.3 | -3.23 ± 0.33 |
| UGAAAGCAAUAUUACGCCCA | -0.309 ± 0.11 | 0.296 ± 0.16 |
| UGAAAGCAAUAUUACGCCUU | -0.914 ± 0.2 | -2.01 ± 0.34 |
| UGAAAGCAAUAUUACGCGCA | -0.0804 ± 0.12 | 0.142 ± 0.15 |
| UGAAAGCAAUAUUACGGGGG | -2.07 ± 0.17 | -2.89 ± 0.26 |
| UGAAAGCAAUAUUACGGGGU | -3.55 ± 0.2 | -2.48 ± 0.18 |
| UGAAAGCAAUAUUACGGUAG | -0.656 ± 0.06 | -0.113 ± 0.088 |
| UGAAAGCAAUAUUACGGUAU | -2.53 ± 0.21 | -0.827 ± 0.16 |
| UGAAAGCAAUAUUACGGUGG | -1.22 ± 0.063 | -1.44 ± 0.093 |
| UGAAAGCAAUAUUACGUACG | -0.177 ± 0.11 | 0.639 ± 0.13 |

| Sequence | self-splicing fitness (ln) (30 °C) | self-splicing fitness (ln) (37 °C) |
| --- | --- | --- |
| UGAAAGCAAUAUUACGUAGU | -3.96 ± 0.26 | -2.16 ± 0.18 |
| UGAAAGCAAUAUUACGUCAA | -0.68 ± 0.12 | -1.31 ± 0.12 |
| UGAAAGCAAUAUUACGUCAG | -1.78 ± 0.13 | -0.368 ± 0.13 |
| UGAAAGCAAUAUUACGUGUU | -3.21 ± 0.13 | -1.44 ± 0.11 |
| UGACAGCAAUAUUACGAAAG | -3.07 ± 0.25 | -2.15 ± 0.2 |
| UGACAGCAAUAUUACGAACA | -0.232 ± 0.081 | -0.06 ± 0.087 |
| UGACAGCAAUAUUACGACAU | -1.209 ± 0.012 | -0.373 ± 0.032 |
| UGACAGCAAUAUUACGAGAA | – | -2.33 ± 0.29 |
| UGACAGCAAUAUUACGAUGU | -4.14 ± 0.17 | -2.28 ± 0.14 |
| UGACAGCAAUAUUACGAUUC | -3.35 ± 0.17 | -2.09 ± 0.14 |
| UGACAGCAAUAUUACGCCAG | -1.56 ± 0.12 | -0.793 ± 0.14 |
| UGACAGCAAUAUUACGCGUA | -0.95 ± 0.094 | -0.353 ± 0.089 |
| UGACAGCAAUAUUACGCGUG | -0.925 ± 0.066 | 0.0478 ± 0.08 |
| UGACAGCAAUAUUACGCUCG | -1.1 ± 0.11 | -0.143 ± 0.14 |
| UGACAGCAAUAUUACGCUUU | -3.43 ± 0.2 | -2.54 ± 0.26 |
| UGACAGCAAUAUUACGGAAC | -2.81 ± 0.24 | -2.42 ± 0.24 |
| UGACAGCAAUAUUACGGCGA | -0.625 ± 0.085 | -0.382 ± 0.092 |
| UGACAGCAAUAUUACGUAAU | -2.19 ± 0.099 | -0.915 ± 0.15 |
| UGACAGCAAUAUUACGUACC | -1.78 ± 0.12 | -0.302 ± 0.14 |
| UGACAGCAAUAUUACGUAGA | -2.29 ± 0.085 | -1.14 ± 0.11 |
| UGACAGCAAUAUUACGUAUC | -2.91 ± 0.097 | -2.57 ± 0.13 |
| UGACAGCAAUAUUACGUGUA | -1.58 ± 0.081 | -0.841 ± 0.081 |
| UGACAGCAAUAUUACGUUAC | -3.81 ± 0.35 | -3.32 ± 0.31 |
| UGACAGCAAUAUUACGUUCC | -1.55 ± 0.1 | -0.947 ± 0.14 |
| UGAGAGCAAUAUUACGAAAC | – | -1.1 ± 0.37 |

| Sequence | self-splicing fitness (ln) (30 °C) | self-splicing fitness (ln) (37 °C) |
| --- | --- | --- |
| UGAGAGCAAUAUUACGACGG | -2.66 ± 0.2 | -2.56 ± 0.25 |
| UGAGAGCAAUAUUACGAGCG | -1.84 ± 0.24 | -1.81 ± 0.31 |
| UGAGAGCAAUAUUACGAUUA | -0.816 ± 0.19 | -0.653 ± 0.3 |
| UGAGAGCAAUAUUACGCACC | -1.54 ± 0.26 | -1.15 ± 0.45 |
| UGAGAGCAAUAUUACGCAUG | -1.65 ± 0.13 | -2.09 ± 0.18 |
| UGAGAGCAAUAUUACGCUAA | -2.28 ± 0.31 | -2.53 ± 0.31 |
| UGAGAGCAAUAUUACGCUUG | -2.26 ± 0.36 | -1.55 ± 0.33 |
| UGAGAGCAAUAUUACGCUUU | -4.15 ± 0.29 | -1.96 ± 0.17 |
| UGAGAGCAAUAUUACGGACG | -1.67 ± 0.28 | -0.294 ± 0.41 |
| UGAGAGCAAUAUUACGGAUC | -1.94 ± 0.25 | -2.32 ± 0.49 |
| UGAGAGCAAUAUUACGGCAU | -2.88 ± 0.23 | -2.85 ± 0.33 |
| UGAGAGCAAUAUUACGGCCA | -1.63 ± 0.25 | – |
| UGAGAGCAAUAUUACGGGAU | – | -1.77 ± 0.37 |
| UGAGAGCAAUAUUACGGGGA | -3.16 ± 0.43 | -2.77 ± 0.27 |
| UGAGAGCAAUAUUACGUAGA | -2.94 ± 0.33 | -1.28 ± 0.35 |
| UGAGAGCAAUAUUACGUAUU | -3.22 ± 0.34 | -1 ± 0.21 |
| UGAGAGCAAUAUUACGUCUC | -1.78 ± 0.38 | – |
| UGAGAGCAAUAUUACGUGGG | -2.83 ± 0.29 | -1.38 ± 0.2 |
| UGAGAGCAAUAUUACGUUAA | – | -2.46 ± 0.3 |
| UGAUAGCAAUAUUACGACAG | -1.41 ± 0.11 | -1.59 ± 0.1 |
| UGAUAGCAAUAUUACGACAU | -2.587 ± 0.02 | -1.26 ± 0.035 |
| UGAUAGCAAUAUUACGACCA | -2.04 ± 0.23 | -0.327 ± 0.37 |
| UGAUAGCAAUAUUACGAGCG | -0.553 ± 0.11 | 0.433 ± 0.15 |
| UGAUAGCAAUAUUACGAGGA | -3.09 ± 0.3 | -2.82 ± 0.48 |
| UGAUAGCAAUAUUACGAGGG | – | -2.38 ± 0.4 |

| Sequence | self-splicing fitness (ln) (30 °C) | self-splicing fitness (ln) (37 °C) |
| --- | --- | --- |
| UGAUAGCAAUAUUACGCAGU | -2.93 ± 0.44 | -2.51 ± 0.27 |
| UGAUAGCAAUAUUACGCCCC | -2.85 ± 0.43 | -0.875 ± 0.38 |
| UGAUAGCAAUAUUACGCCCU | -0.0785 ± 0.15 | 0.0233 ± 0.21 |
| UGAUAGCAAUAUUACGCGAC | -3.55 ± 0.28 | – |
| UGAUAGCAAUAUUACGCUAG | -1.09 ± 0.081 | -0.588 ± 0.078 |
| UGAUAGCAAUAUUACGCUCU | -1.41 ± 0.11 | 0.193 ± 0.15 |
| UGAUAGCAAUAUUACGGGCA | -0.911 ± 0.075 | 0.244 ± 0.12 |
| UGAUAGCAAUAUUACGGGCG | -0.568 ± 0.099 | 0.157 ± 0.1 |
| UGAUAGCAAUAUUACGGGGU | -2.68 ± 0.21 | -2.35 ± 0.28 |
| UGAUAGCAAUAUUACGUCAC | -4.14 ± 0.22 | -2.81 ± 0.22 |
| UGAUAGCAAUAUUACGUCAU | -3.03 ± 0.27 | -2.16 ± 0.2 |
| UGAUAGCAAUAUUACGUGAA | -3 ± 0.17 | -1.7 ± 0.16 |
| UGAUAGCAAUAUUACGUGCA | -0.486 ± 0.054 | 0.164 ± 0.076 |
| UGAUAGCAAUAUUACGUGGU | -2.4 ± 0.21 | -2.73 ± 0.23 |
| UGCAAGCAAUAUUACGACCG | 0.118 ± 0.086 | 0.563 ± 0.13 |
| UGCAAGCAAUAUUACGACGA | -0.804 ± 0.074 | 0.648 ± 0.087 |
| UGCAAGCAAUAUUACGAGGU | -3.41 ± 0.23 | -2.26 ± 0.17 |
| UGCAAGCAAUAUUACGAGUG | -1.42 ± 0.052 | -0.498 ± 0.062 |
| UGCAAGCAAUAUUACGAUAU | -3.42 ± 0.2 | -0.49 ± 0.1 |
| UGCAAGCAAUAUUACGCAAU | -3.55 ± 0.4 | -2.06 ± 0.32 |
| UGCAAGCAAUAUUACGCACG | -2.14 ± 0.3 | -0.955 ± 0.13 |
| UGCAAGCAAUAUUACGCGAG | -3.25 ± 0.15 | -2.36 ± 0.16 |
| UGCAAGCAAUAUUACGCGGU | -3.01 ± 0.23 | -2.25 ± 0.21 |

Source: the supplement of paper PMC7877785
